The values below come from US20120316071A1 (published 2012).

Assay [1] concerns the target T1, rHuman ErbB2/Fc Chimera, CF (R&D Systems Cat#1129-ER) (human, UniProt P04626 23-652).
T1 construct: Bought recombinant protein; Fc part of the bought chimera not given
As to the kind of experiment: ECL multispot (MSD) assay, spotted antigen; Fab 2.00 (head prints uM).

For assay [2], the target named is T2, rHuman HGF R/c-MET/Fc Chimera, CF (R&D Systems Cat#358-MT/CF) (human, UniProt P08581 25-932).
T2 construct: Bought recombinant protein; also called HGF R/Fc; Fc part of the bought chimera not given
T2 sequence (P08581 25-932, change not shown): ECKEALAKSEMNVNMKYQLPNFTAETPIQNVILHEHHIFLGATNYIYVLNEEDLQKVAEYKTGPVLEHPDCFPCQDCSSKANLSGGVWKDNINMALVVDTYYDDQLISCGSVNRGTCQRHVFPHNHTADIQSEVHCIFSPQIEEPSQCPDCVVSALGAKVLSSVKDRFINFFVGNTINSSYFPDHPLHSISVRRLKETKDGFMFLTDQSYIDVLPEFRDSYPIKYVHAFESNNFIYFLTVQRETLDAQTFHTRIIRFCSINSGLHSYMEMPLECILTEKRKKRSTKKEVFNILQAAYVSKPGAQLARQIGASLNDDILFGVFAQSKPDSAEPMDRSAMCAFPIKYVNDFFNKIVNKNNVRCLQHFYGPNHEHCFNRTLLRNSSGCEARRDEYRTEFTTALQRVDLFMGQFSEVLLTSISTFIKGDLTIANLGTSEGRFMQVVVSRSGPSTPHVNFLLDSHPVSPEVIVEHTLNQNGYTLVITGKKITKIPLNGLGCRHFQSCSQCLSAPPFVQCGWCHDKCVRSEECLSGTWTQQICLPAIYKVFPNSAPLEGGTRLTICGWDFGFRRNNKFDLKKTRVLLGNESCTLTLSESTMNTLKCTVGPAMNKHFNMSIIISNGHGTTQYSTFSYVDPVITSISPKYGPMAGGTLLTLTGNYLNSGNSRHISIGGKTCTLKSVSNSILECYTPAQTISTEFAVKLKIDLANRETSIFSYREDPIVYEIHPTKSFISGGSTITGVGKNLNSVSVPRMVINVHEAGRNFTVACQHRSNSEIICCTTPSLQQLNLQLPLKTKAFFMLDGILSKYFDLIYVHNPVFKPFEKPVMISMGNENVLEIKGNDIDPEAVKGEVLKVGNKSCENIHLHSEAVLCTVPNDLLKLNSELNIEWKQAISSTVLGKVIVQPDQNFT
Described as above.

Assay [3] addresses T3, rHuman P-Cadherin/Fc Chimera, CF (R&D Systems Cat#861-PC) (human, UniProt P22223 108-654).
T3 construct: Bought recombinant protein; Fc part of the bought chimera not given
The description is as above.

Assay [4] deals with T4, rHuman IGF-1 sR, CF (R&D Systems Cat#391-GR) (human, UniProt P08069 31-932).
T4 construct: Bought soluble receptor; The column head prints only 'IGF-1'; also called insulin-like growth factor-1 soluble receptor
As to the kind of experiment: ECL Multispot (MSD) assay, antigen spotted on plate, 10 nM Fab; blank spot of this row 472.

Assay [5] has as its target T5, rHuman P-Cadherin/Fc Chimera, CF (R&D Systems Cat#861-PC) (human, UniProt P22223 108-654).
T5 construct: Bought reagent; Fc part of the bought chimera not given
Described as above.

For assay [6], the target named is T6, rHuman EGF R/Fc Chimera, CF (R&D Systems Cat#344-ER) (human, UniProt P00533 25-645).
T6 construct: Bought reagent; also called epidermal growth factor receptor; Fc part of the bought chimera not given
The assay is described as above.

In assay [7] the target is T7, rHuman CD44/Fc Chimera, CF (R&D Systems Cat#3660-CD) (human, UniProt P16070 21-220).
T7 construct: Bought reagent; Fc part of the bought chimera not given
The description is as above.

The target of assay [8] is T8, Recombinant Human DLL4 (R&D Systems Cat#1506-D4/CF) (human, UniProt Q9NR61 27-524).
T8 construct: Bought recombinant protein; also called rHuman DLL4; delta-like protein 4
In words: Multispot ECL (MSD), antigen spotted on plate, Fab 15.6 nM; blank spot 294.

For assay [9], the target named is T9, rHuman Notch-1/Fc Chimera, CF (R&D Systems Cat#3647-TK) (human, UniProt P46531 19-526).
T9 construct: Bought recombinant protein; Fc part of the bought chimera not given
The description is as above.

The target in assay [10] is T10, rHuman IGF-1 sR, CF (R&D Systems Cat#391-GR) (human, UniProt P08069 31-932).
T10 construct: Bought recombinant soluble receptor; also called insulin-like growth factor-1 soluble receptor
The assay is described as above.

Assay [11] deals with T11, rHuman Erythropoietin R/Fc Chimera, CF (R&D Systems Cat#963-ER) (human, UniProt P19235 25-250).
T11 construct: Bought recombinant protein; also called EPO R/Fc; Epo R; Fc part of the bought chimera not given
T11 sequence (looked up): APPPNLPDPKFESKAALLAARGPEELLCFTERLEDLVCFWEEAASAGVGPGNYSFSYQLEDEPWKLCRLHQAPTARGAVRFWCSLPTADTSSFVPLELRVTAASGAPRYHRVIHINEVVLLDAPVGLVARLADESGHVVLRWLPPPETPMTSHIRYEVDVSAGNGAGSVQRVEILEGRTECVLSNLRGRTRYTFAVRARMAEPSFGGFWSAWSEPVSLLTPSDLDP
The description is as above.

Assay [12] concerns the target T12, rHuman Erythropoietin R/Fc Chimera, CF (R&D Systems Cat#963-ER) (human, UniProt P19235 25-250).
T12 construct: Bought Fc chimera; also called EPO R/Fc; EPO R; Fc part of the bought chimera not given
T12 sequence (looked up): T11 sequence (looked up)
In words: Multispot ECL (MSD) titration; antigen spotted on plate; Fab 58.1 nM; blank spot 225.

Assay [13] deals with T13, Recombinant Human DLL4 (R&D Systems Cat#1506-D4/CF) (human, UniProt Q9NR61 27-524).
T13 construct: Bought recombinant protein; also called delta-like protein 4; rHuman DLL4
The assay is described as above.

Assay [14] concerns the target T14, rHuman ErbB2/Fc Chimera, CF (R&D Systems Cat#1129-ER) (human, UniProt P04626 23-652).
T14 construct: Bought Fc chimera; also called human epidermal growth factor 2 receptor; Fc part of the bought chimera not given
Described as above.

Assay [15] deals with T15, rHuman Notch-1/Fc Chimera, CF (R&D Systems Cat#3647-TK) (human, UniProt P46531 19-526).
T15 construct: Bought Fc chimera; Fc part of the bought chimera not given
The description is as above.

For assay [16], the target named is T16, rHuman CD44/Fc Chimera, CF (R&D Systems Cat#3660-CD) (human, UniProt P16070 21-220).
T16 construct: Bought Fc chimera; Fc part of the bought chimera not given
The assay is described as above.

Assay [17] deals with T17, rHuman IGF-1 sR (IGF-1 sR), CF (R&D Systems Cat#391-GR) (human, UniProt P08069 31-932).
T17 construct: Bought soluble receptor; also called insulin-like growth factor-1 soluble receptor
Described as above.

Assay [18] addresses T18, rHuman P-Cadherin/Fc Chimera, CF (R&D Systems Cat#861-PC) (human, UniProt P22223 108-654).
T18 construct: Bought Fc chimera; Fc part of the bought chimera not given
The assay is described as above.

Substitutions are numbered along the chain they refer to. In names and notes the source's numbering stands.

B1: Fab VH5-51_IGHD5-18*01>3_IGHJ4*01 G100K/G104T & V3-4_IGLJ1*01 (Fab, V domains shown)
VH: EVQLVQSGAEVKKPGESLKISCKGSGYSFTSYWIGWVRQMPGKGLEWMGIIYPGDSDTRYSPSFQGQVTISADKSISTAYLQWSSLKASDTAMYYCARRKYSYTYDYFDYWGQGTLVTVSS
VL: QTVVTQEPSFSVSPGGTVTLTCGLSSGSVSTSYYPSWYQQTPGQAPRTLIYSTNTRSSGVPDRFSGSILGNKAALTITGAQADDESDYYCVLYMGSGISYVFGTGTKVTVL
notes: Tested as a Fab; The constant parts are the same as for the parent Fab (CH1 with His6/Flag tags, lambda CL); also called KT double mutant; H:KT
As to B1, the ECL signal/noise ratio in [1] was 3.2; in assay [2], 6; in [3] it was 4.3.

B2: Fab VH1-46_IGHD6-6*01_IGHJ1*01 S102A/S103P/S104F (APF) & L6_IGKJ1*01 (Fab, V domains shown)
VH: QVQLVQSGAEVKKPGASVKVSCKASGYTFTSYYMHWVRQAPGQGLEWMGIINPSGGSTSYAQKFQGRVTMTRDTSTSTVYMELSSLRSEDTAVYYCAREEYAPFSAEYFQHWGQGTLVTVSS
VL: not shown
notes: Tested as a Fab made in E. coli; also called H:APF & L:wt; APF triple mutant
Turning to B2, the ECL signal in assay [4] came out at 434; in [5] it was 433; in assay [6], 428; in assay [7], 400.

B3: Fab VH1-46_IGHD6-13*01_IGHJ4*01 & B3_IGKJ1*01 (Fab, V domains shown)
VH: B2 VH with E100G, A102S, P103S, F104S, S105W, A106Y, E107D, Q110D, H111Y
VL: not shown
notes: Germline Fab made in E. coli; VH was cloned into Plasmid A (CH1, His6 and Flag tags) and the kappa VL into Plasmid C (kappa CL)
With B3, the ECL signal came to 525 in assay [8], 418 in [9], 349 in assay [10] and 8360 in assay [11].

B4: Fab VH1-46_IGHD6-13*01_IGHJ4*01 & O1_IGKJ1*01 (Fab, V domains shown)
VH: B2 VH with E100G, A102S, P103S, F104S, S105W, A106Y, E107D, Q110D, H111Y
VL: DIVMTQTPLSLPVTPGEPASISCRSSQSLLDSDDGNTYLDWYLQKPGQSPQLLIYTLSYRASGVPDRFSGSGSGTDFTLKISRVEAEDVGVYYCMQRIEFPSWTFGQGTKVEIKR
notes: Germline library Fab expressed in E. coli; VH was cloned into Plasmid A (CH1 constant region, His6 and Flag tags); The kappa VL was cloned into Plasmid C (kappa CL)
Take B4: the ECL signal in assay [12] stood at 829; in assay [13], 1880; in [14], 322; in [15], 388; in assay [16], 375; in [17], 343. This molecule yielded an ECL signal in assay [18] of 478.
